Source: patent publication US10577428B2, “Anti-factor XI monoclonal antibodies and methods of use thereof” (Oregon Health & Science University, priority 2007, dated 2020)
“Also recorded” adds a separate entry of the source.

Experiments:
baboons (Papio anubis) [1] = test: Vascular graft occlusion studies, collagen coated 2 mm i.d. grafts, high arterial shear; type: in vivo, baboon (Papio anubis); details: 2 mm i.d. grafts
Protocol: (§1) Thrombus formation was initiated within the baboon AV shunt by interposing a thrombogenic segment of prosthetic vascular graft (ePTFE, WL Gore & Co., Flagstaff, Ariz.), as previously described (Hanson et al. (1993) J. Clin. Invest. 92:2003-2012). To consistently trigger platelet-dependent thrombus formation, the clinical graft segments were coated with immobilized collagen. Twenty mm long grafts having internal diameters (i.d.) of either 2 or 4 mm were filled with equine type I collagen (1 mg/ml; Nycomed Arzenmittel, Munich, Germany) for 15 min, and then dried overnight under sterile airflow. This method produced a uniform collagen coating within the graft lumen as determined by scanning electron microscopy (FIGS. 1B and 1C). The thrombogenic collagen-coated grafts were then incorporated between segments of silicon rubber tubing, and deployed into the AV shunts (FIG. 1A). The grafts were exposed to blood for up to 60 min. During each experiment, the blood flow rate through the graft was restricted to 100 ml/min by clamping the proximal silicone rubber shunt segment, thereby producing a mean wall shear rate (MWSR) in the 4 mm grafts of 265 s^−1, while in the 2 mm grafts the initial MWSR was 2120 s^−1. Flow rates were continuously monitored using an ultrasonic flow meter (Transonics Systems, Ithaca, N.Y.). […] Baseline blood flow was restored through the permanent shunt after each experiment. In the 2 mm diameter grafts blood flow rates progressively declined due to thrombus formation. The grafts were removed from the AV shunts when the flow rate fell from 100 ml/min to below 20 ml/min, signaling imminent occlusion. The time from initiation of blood flow to graft removal (<20 ml/min blood flow) was taken as the occlusion time.
Occlusion studies were performed using 10 mm long 2 mm i.d. collagen coated devices which produced high arterial shear rates (2120 s^−1 at 100 ml/min clamped blood flow). Accumulation of labeled platelets onto 2 mm thrombogenic grafts were measured in 3-min intervals using a gamma scintillation camera. Flow was maintained at 100 ml/min by proximal clamping for as long as possible, and then allowed to decrease as the propagating thrombus began to occlude the device. A final blood flow rate of 20 ml/min was used as a cutoff for occlusion, since a fully occlusive thrombi and lack of blood flow through the device could lead to occlusion of the shunt and a significant loss of blood for the animals.
Since aspirin is a less antihemostatic agent than heparin, and it is often included in the standard treatment of arterial-type platelet-dependent thrombosis, ASA was used in the current studies with the occlusion-prone 2 mm i.d. grafts as a long-acting positive control. ASA (32 mg/kg) was administered orally 2-4 h before each thrombosis experiment, as described previously (Hanson et al. (1985) J. Clin. Invest. 75:1591-1599). Four weeks were allowed for washout of each aXIMab and ASA before performing new experiments in the same animal.

baboons (Papio anubis) [2] = test: Local and systemic TAT, βTG and D-dimer during thrombus formation (4 mm grafts); type: in vivo, baboon (Papio anubis)
Protocol: A novel local sampling method was used to assess the local production of thrombogenic mediators by sampling blood that superfused propagating experimental thrombi. […] All blood samples were collected into 1/10th volume 3.8% citrate anticoagulant. Systemic samples (1 ml each) were collected before initiation of thrombosis as well as 30 and 60 min into each study. A total of 6 local blood samples were drawn from the peripheral blood IBL at a rate of 100 μl/min over 10 min intervals out of a 0.64 mm port which was located 10 mm distal to the growing thrombus (FIG. 1A). […] Infusion and sampling were regulated by syringe pumps (Harvard Apparatus). Local sampling was performed only with the 4 mm i.d. devices in this study.
Blood cell counts were determined using a micro-60 automated cell counter (Horiba-ABX Diagnostics). Blood samples were divided into two aliquots and processed according to specific test requirements. All samples were placed on ice for 10 min, centrifuged at 4° C. for 10 min at 12,900 g, and the plasmas were stored at −80° C. For β-thromboglobulin (βTG) determinations, the samples were supplemented with 4 μg/ml prostaglandin E1 (PGE1), 4.3 mg/ml acetylsalicylic acid (ASA), and 50 μg/ml PPACK. Cross-reacting ELISA assays were used to determine D-dimer levels (IMUCLONE® D-Dimer, American Diagnostica; LOD: 35 ng/mL), the platelet activation marker βTG (Asserachrom®, Diagnostica Stago; LOD: 5 IU/mL), and thrombin-antithrombin complexes (TAT, Enzygnost-TAT, Dade-Behring; LOD: 2 ng/mL). All ELISA test kits utilized for these studies have previously shown sensitivity to baboon markers.

[3] = test system: normal baboon plasma (NBP); test: aPTT and PT in normal baboon plasma in vitro; type: biochemical; details: 0-40 nM
[4] = test system: normal human plasma (NHP); test: aPTT and PT in normal human plasma in vitro; type: biochemical; details: 0-40 nM
baboons (Papio anubis) [5] = test: Thrombosis model, collagen coated 4 mm i.d. vascular grafts in AV shunt: platelet and fibrin deposition; type: in vivo, baboon (Papio anubis)
Protocol: A total of 39 non-terminal studies were performed on 17 normal juvenile male baboons (Papio anubis) weighing 9-11 kg. Experiments were conducted on non-anticoagulated awake animals that had chronic exteriorized arterio-venous (AV) shunts previously placed between the femoral artery and vein, as described elsewhere (Hanson et al. (1993) J. Clin. Invest. 92:2003-2012). Baseline shunt blood flow exceeded 250 ml/min in all study animals. Anxiety was managed with low dose ketamine (<2 mg/kg/hr). Platelet counts, red cell counts, and hematocrits were measured daily, before and after the experiments.
as §1
For imaging of the platelet deposition, autologous baboon platelets were labeled with 1 mCi of ^111In-oxine as previously described (Hanson et al. (1993) J. Clin. Invest. 92:2003-2012). Labeled platelets were infused and allowed to circulate for at least 1 h before studies were performed. Accumulation of labeled platelets onto thrombogenic grafts were measured in 5-min intervals using a gamma scintillation camera. Homologous ^125I-labeled baboon fibrinogen (4 μCi, >90% clottable) was infused 10 min before each study, and incorporation of the labeled fibrin within the thrombus was assessed using a gamma counter 30 days later to allow the ^111In to decay. The radioactivity deposited (cpm) was divided by the clottable fibrin(ogen) radioactivity of samples taken at the time of the original study (cpm/mg).

B1: aXIMab: neutralizing murine IgG/kappa anti-human FXI monoclonal antibody from hybridoma 1A6; binds A3 domain; VH SEQ ID NO:3, VL SEQ ID NO:5 (antibody, listed as Mus musculus, V domains shown)
VH: QVTLKESGPGILKPSQTLSLTCSFSGFSLSTSGMGVGWIRQPSGKGLEWLAHIWWDDDKYYNPSLKSQLTISKDTSRNQVFLKITSVDAADTATYYCARKRSSVVAHYYAMDYWGQGTSVTVSS
VL: DIVLTQSPASLAVSLGQRATISCKASQSVDYDGDSYLNWYQQKPGQPPKLLIYAASNLESGIPARFSGSGSGTDFTLNIHPVEEEDAATYYCQQSNGDPWTFGGGTKLEIK
**Q.** What does the source list for B1?
**A.** initial platelet accumulation rate versus vehicle (baboons (Papio anubis) [1]): similar; thrombus stability (baboons (Papio anubis) [1]; 2120 s^-1): unstable; also recorded: profoundly reduced; Number occluded (baboons (Papio anubis) [1]; 60 min): 0/5; graft occlusion (baboons (Papio anubis) [1]; 60 min-long studies (FIG. 5)): did not occlude the grafts; time after initiation of blood perfusion when growth rate of platelet thrombus was reduced (baboons (Papio anubis) [1]; all treated animals): 12 to 15 min; Embolic events per experiment (baboons (Papio anubis) [1]; mean ± SEM): 6.6 ± 0.9; Fibrin deposition (baboons (Papio anubis) [1]; mean ± SEM, control 0.30 ± 0.04): 0.18 ± 0.02 mg; grafts remained patent (baboons (Papio anubis) [1]; over 60 min): 5 of 5; βTG release (platelet activation at thrombus surface) reduced (baboons (Papio anubis) [2]; at 30 min, samples taken distal to thrombi): 86%; TAT levels by local sampling reduced (baboons (Papio anubis) [2]; at 40 min): up to 98%; Systemic βTG levels reduced (baboons (Papio anubis) [2]; at 60 min): 42%; systemic TAT levels reduced versus untreated controls (baboons (Papio anubis) [2]; at 60 min): 81%; systemic TAT levels (baboons (Papio anubis) [2]; at 60 min, n=6, control 22.1±2.5): 4.3 ± 0.5 µg/L; Systemic βTG levels (baboons (Papio anubis) [2]; at 60 min, n=6, vehicle 39.5±5.5): 23.0±2.1 IU/ml; increase in local TAT levels (baboons (Papio anubis) [2]; pre-treatment with aXIMab (FIG. 4A)): prevented the increase in local TAT levels; prothrombin time (PT) [3]: without affecting; activated partial thromboplastin time (aPTT) ([3]; concentration-dependent): prolonged; prothrombin time (PT) [4]: without affecting; activated partial thromboplastin time (aPTT) ([4]; concentration-dependent): prolonged; End-point fibrin deposition reduced compared with controls (baboons (Papio anubis) [5]; 4 mm graft): 81%; End-point fibrin deposition (baboons (Papio anubis) [5]; 4 mm graft, control 1.18±0.19): 0.23 ± 0.07 mg; platelet accumulation (baboons (Papio anubis) [5]; 10 min after graft exposure, 4 mm graft, control 0.23±0.03): 0.13±0.03 ×10^9 platelets; Graft platelet accumulation lower than in vehicle controls (baboons (Papio anubis) [5]; 60 min, 4 mm graft): 63%; Graft platelet accumulation (baboons (Papio anubis) [5]; 60 min, 4 mm graft, n=6, control 3.68±0.52): 1.38±0.26 ×10^9 platelets; Systemic platelet counts, change following thrombosis experiments (baboons (Papio anubis) [5]; in vivo): did not change significantly; Systemic platelet counts (baboons (Papio anubis) [5]; prior to thrombosis studies, control 337±31): 341±27 ×10^3/μl
